This experiment has as its target human alpha-synuclein (wild-type, recombinant) (human). Nature of the experiment: cell-based or functional assay.

From patent US20110207796A1, “ALPHA-SYNUCLEIN KINASE” (Elan Pharma International Limited, priority 2008, published 2011) come the findings set out here.

Polo like kinase 2 (PLK2) (enzyme), sequence (chain): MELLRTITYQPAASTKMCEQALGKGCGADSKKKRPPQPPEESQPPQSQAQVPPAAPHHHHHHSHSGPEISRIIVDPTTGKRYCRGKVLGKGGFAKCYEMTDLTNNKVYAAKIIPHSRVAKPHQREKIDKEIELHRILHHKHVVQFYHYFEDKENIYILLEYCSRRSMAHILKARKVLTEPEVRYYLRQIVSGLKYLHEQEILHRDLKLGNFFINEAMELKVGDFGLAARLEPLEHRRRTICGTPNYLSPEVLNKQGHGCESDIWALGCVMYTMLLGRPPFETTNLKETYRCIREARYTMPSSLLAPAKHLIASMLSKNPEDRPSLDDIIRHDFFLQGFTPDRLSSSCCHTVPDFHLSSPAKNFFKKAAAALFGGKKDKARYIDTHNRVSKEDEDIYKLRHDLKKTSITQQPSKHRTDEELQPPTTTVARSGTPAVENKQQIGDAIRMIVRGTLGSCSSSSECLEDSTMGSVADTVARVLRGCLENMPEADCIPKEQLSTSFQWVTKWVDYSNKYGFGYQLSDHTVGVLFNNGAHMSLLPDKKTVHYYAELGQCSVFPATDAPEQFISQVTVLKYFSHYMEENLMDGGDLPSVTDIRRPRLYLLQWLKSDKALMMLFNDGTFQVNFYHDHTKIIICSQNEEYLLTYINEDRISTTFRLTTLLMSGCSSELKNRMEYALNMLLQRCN
CDC7 cell division cycle 7-like 1, sequence (O00311 whole entry): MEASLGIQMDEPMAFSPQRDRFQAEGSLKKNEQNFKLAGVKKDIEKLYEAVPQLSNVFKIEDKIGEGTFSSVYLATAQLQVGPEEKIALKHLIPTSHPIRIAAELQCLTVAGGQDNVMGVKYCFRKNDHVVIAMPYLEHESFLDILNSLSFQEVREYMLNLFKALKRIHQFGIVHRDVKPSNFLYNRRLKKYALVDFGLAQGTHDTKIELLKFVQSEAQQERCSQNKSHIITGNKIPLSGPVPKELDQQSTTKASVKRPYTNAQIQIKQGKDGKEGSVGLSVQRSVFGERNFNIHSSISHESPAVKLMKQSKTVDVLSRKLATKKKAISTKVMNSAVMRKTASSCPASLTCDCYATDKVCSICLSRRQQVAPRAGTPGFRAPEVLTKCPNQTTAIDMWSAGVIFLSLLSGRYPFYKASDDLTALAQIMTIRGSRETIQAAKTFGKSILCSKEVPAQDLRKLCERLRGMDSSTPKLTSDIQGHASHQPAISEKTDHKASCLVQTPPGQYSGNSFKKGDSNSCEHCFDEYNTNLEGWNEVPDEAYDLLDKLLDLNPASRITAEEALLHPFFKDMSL
Aortic preferentially expressed gene 1, sequence (Q15772 other isoform, or with tags, fused parts or gaps limits assumed): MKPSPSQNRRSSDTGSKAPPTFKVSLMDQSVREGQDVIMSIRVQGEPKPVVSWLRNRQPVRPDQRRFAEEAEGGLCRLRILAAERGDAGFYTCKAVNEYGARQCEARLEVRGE
G protein-coupled receptor kinase 6, sequence (P43250 whole entry): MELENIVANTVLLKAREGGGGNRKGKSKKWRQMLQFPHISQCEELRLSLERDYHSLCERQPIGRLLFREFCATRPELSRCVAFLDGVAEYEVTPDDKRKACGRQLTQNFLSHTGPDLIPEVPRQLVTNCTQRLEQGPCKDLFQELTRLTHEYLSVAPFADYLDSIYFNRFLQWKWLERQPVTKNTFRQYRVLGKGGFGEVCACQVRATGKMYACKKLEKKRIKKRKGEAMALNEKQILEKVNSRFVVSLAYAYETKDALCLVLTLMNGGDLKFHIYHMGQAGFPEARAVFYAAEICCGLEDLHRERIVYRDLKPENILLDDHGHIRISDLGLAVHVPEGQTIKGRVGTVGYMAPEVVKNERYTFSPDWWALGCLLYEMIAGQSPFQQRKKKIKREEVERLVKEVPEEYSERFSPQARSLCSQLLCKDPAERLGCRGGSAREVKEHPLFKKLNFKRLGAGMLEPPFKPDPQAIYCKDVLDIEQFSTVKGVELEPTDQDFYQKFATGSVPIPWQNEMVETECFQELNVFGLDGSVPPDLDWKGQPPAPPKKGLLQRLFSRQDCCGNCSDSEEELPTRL

In the case of “Aortic preferentially expressed gene 1 (from UniProt Q15772 1-113) (enzyme)”, the percentage of phospho-synuclein by ELISA, cDNA transfected into PEAK-Syn cells is 8.9%.
As to “CDC7 cell division cycle 7-like 1 (from UniProt O00311 1-574) (enzyme)”, the percentage of phospho-synuclein by ELISA, cDNA transfected into PEAK-Syn cells was determined as 8.9%.
For the substance Polo like kinase 2 (PLK2) (enzyme), the percent phospho-synuclein by ELISA, PLK2 alone transfected into HEK-synuclein cells was 18.6%; the percent phospho-synuclein by ELISA, PLK2 and synuclein co-transfected into naive HEK cells is 60%; the percent phospho-synuclein by ELISA, cDNA transfected into PEAK-Syn cells came out at 33.2%; the percent synuclein phosphorylation by ELISA, PLK2 positive control in HEK-syn cells was 65.8%. In addition, the phospho-synuclein by ELISA, PLK2 cDNA transfected into 293-synuclein cells came to 4.3 fold.
Consider “G protein-coupled receptor kinase 6 (from UniProt P43250 1-576) (enzyme)”, for which the percent phospho-synuclein by ELISA, cDNA transfected into PEAK-Syn cells was determined as 18.9%.
